Columns and labels:
CD40/Fc fusion protein [1] = molecular target: T1, CD40/Fc fusion protein (human, UniProt P25942 21-193); test: BIAcore biosensor, CD40/Fc captured by goat anti-human IgG1 Fc; first experiment
T1 construct: extracellular domain; also called C40/Fc; CD40Fc recombinant receptor
Protocol: (§1) This example illustrates the binding affinities of several different CD40-L constructs. Affinity experiments were conducted by biospecific interaction analysis (BIA) using a biosensor, an instrument that combines a biological recognition mechanism with a sensing device or transducer. An exemplary biosensor is BIAcore™, from Pharmacia Biosensor AB (Uppsala, Sweden; see Fägerstam L. G., Techniques in Protein Chemistry II, ed. J. J. Villafranca, Acad. Press, NY, 1991). BIAcore™ uses the optical phenomenon surface plasmon resonance (Kretschmann and Raether, Z. Naturforschung, Teil. A 23:2135, 1968) to monitor the interaction of two biological molecules.
(§2) The biosensor chips were coated with goat anti-human IgG₁ Fc, which was used to bind CD40/Fc (prepared as described in Example 1) to the chip. The different constructs of CD40-L were then added at increasing concentrations; the chip was regenerated between the different constructs by the addition of sodium hydroxide. Two separate experiments were performed. In the first, the binding of a dimeric human CD40-L (Example 14), trimeric human CD40-L (Example 15), dimeric murine CD40-L (prepared substantially as described in Example 14 for human CD40-L/FC) and trimeric murine CD40-L (prepared substantially as described for the human CD40-L in Example 15) were compared. In the second experiment, the binding of trimeric human CD40-L was compared to the binding of two different preparations of monomeric human CD40-L prepared as described in Example 18. The resultant data were analyzed to determine the affinity and association rate constants of the different CD40-L constructs. Results are shown in Table 12 below, and in FIGS. 18 and 19.

CD40/Fc fusion protein [2] = molecular target: T1, CD40/Fc fusion protein; test: BIAcore biosensor, CD40/Fc captured by goat anti-human IgG1 Fc; first experiment; K1 (site 1)
Protocol: as §1, §2

CD40/Fc fusion protein [3] = molecular target: T1, CD40/Fc fusion protein; test: BIAcore biosensor, CD40/Fc captured by goat anti-human IgG1 Fc; first experiment; K2 (site 2)
Protocol: as §1, §2

CD40/Fc fusion protein [4] = molecular target: T1, CD40/Fc fusion protein; test: BIAcore biosensor, CD40/Fc captured by goat anti-human IgG1 Fc; second experiment; K2 (site 2)
Protocol: as §1
(§3) The biosensor chips were coated with goat anti-human IgG₁ Fc, which was used to bind CD40/Fc (prepared as described in Example 1) to the chip. The different constructs of CD40-L were then added at increasing concentrations; the chip was regenerated between the different constructs by the addition of sodium hydroxide. Two separate experiments were performed. […] The resultant data were analyzed to determine the affinity and association rate constants of the different CD40-L constructs. […]

CD40/Fc fusion protein [5] = molecular target: T1, CD40/Fc fusion protein; test: BIAcore biosensor, CD40/Fc captured by goat anti-human IgG1 Fc; second experiment; K1 (site 1)
Protocol: as §1, §3

CD40/Fc fusion protein [6] = molecular target: T1, CD40/Fc fusion protein; test: BIAcore biosensor, CD40/Fc captured by goat anti-human IgG1 Fc; second experiment
Protocol: as §1, §3

CD40 on cells = CD40 on cells (UniProt P25942 21-277, limits assumed); test: cell-based or functional assay
CD40/Fc fusion protein [7] = molecular target: T1, CD40/Fc fusion protein; test: biosensor assay substantially as in Example 22; yeast-expressed protein
Protocol: as §2
Mutant 18PP had only a single mutation in the molecule, which was sufficient to affect secretion in yeast. Mutant 41 had two mutations, both of which were in the isoleucine residues of the zipper domain. The mutations in the zipper improve secretion from yeast without apparent effect on activity.

T1 sequence (P25942 other isoform, or with tags, fused parts or gaps limits assumed): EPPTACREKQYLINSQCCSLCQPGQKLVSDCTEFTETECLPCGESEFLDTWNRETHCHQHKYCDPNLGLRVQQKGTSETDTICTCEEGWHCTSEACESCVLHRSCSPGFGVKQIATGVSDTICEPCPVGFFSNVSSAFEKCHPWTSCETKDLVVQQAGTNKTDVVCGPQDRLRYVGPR
Sequence of CD40 on cells (P25942 21-277 limits assumed): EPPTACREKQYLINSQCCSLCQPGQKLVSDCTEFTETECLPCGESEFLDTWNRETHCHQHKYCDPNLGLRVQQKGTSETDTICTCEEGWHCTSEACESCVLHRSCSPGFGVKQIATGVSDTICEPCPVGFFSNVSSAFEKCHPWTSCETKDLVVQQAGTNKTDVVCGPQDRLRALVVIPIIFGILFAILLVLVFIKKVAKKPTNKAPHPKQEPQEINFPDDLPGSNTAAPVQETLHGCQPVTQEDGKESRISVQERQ

| Binder | Site 1 (mol/mol CD40/Fc) (CD40/Fc fusion protein [1]) | Site 2 (mol/mol CD40/Fc) (CD40/Fc fusion protein [1]) | Ka (CD40/Fc fusion protein [2]) [M⁻¹] | Ka (CD40/Fc fusion protein [3]) [M⁻¹] | Ka (CD40/Fc fusion protein [4]) [M⁻¹] | Ka (CD40/Fc fusion protein [5]) [M⁻¹] | Site 2 (mol/mol CD40/Fc) (CD40/Fc fusion protein [6]) | B-cell proliferation (U/µg), Experiment 2 (CD40 on cells) [U/µg] | Ka (CD40/Fc fusion protein [7]) [M⁻¹] |
| --- | --- | --- | --- | --- | --- | --- | --- | --- | --- |
| CD40-L/FC2 soluble CD40-L/Fc fusion protein (Fc fusion, also called dimeric human CD40-L; Human Dimer) DYKDDDDKRSCDKTHTCPPCPAPELLGGPSVFLFPPKPKDTLMISRTPEVTCVVVDVSHEDPEVKFNWYVDGVEVHNAKTKPREEQYNSTYRVVSVLTVLHQDWLNGKEYKCKVSNKALPAPIEKTISKAKGQPREPQVYTLPPSRDELTKNQVSLTCLVKGFYPSDIAVEWESNGQPENNYKTTPPVLDSDGSFFLYSKLTVDKSRWQQGNVFSCSVMHGGGGSGGGGSGGGGSSSDKIEDERNLHEDFVFMKTIQRCNTGERSLSLLNCEEIKSQFEGFVKDIMLNKEETKKENSFEMQKGDQNPQIAAHVISEASSKTTSVLQWAEKGYYTMSNNLVTLENGKQLTVKRQGLYYIYAQVTFCSNREASSQAPFIASLCLKSPGRFERILLRAANTHSSAKPCGQQSIHLGGVFELQPGASVFVNVTDPSQVSHGTGFTSFGLLKL | 0.013 | 0.049 | 1.6e+11 | 7e+08 | – | – | – | – | – |
| trimeric murine CD40-L (ligand, also called Murine Trimer; muCD40LT) not shown | 0.02 | 0.44 | 6e+10 | 1.6e+08 | – | – | – | – | – |
| trimeric human CD40-L (ligand, Leader left out; also called Human Trimer; CD40-L trimer) not shown | 0.04 | 0.68 | 5e+09 | 7.5e+07 | 2.6e+07 | 6.6e+08 | 0.41 | – | – |
| dimeric murine CD40-L (Fc fusion, not shown: a dimerising Fc or GST, the whole entry is named; also called Murine Dimer) HRRLDKVEEEVNLHEDFVFIKKLKRCNKGEGSLSLLNCEEMRRQFEDLVKDITLNKEEKKENSFEMQRGDEDPQIAAHVVSEANSNAASVLQWAKKGYYTMKSNLVMLENGKQLTVKREGLYYVYTQVTFCSNREPSSQRPFIVGLWLKPSSGSERILLKAANTHSSSQLCEQQSVHLGGVFELQAGASVFVNVTEASQVIHRVGFSSFGLLKL | 0.05 | 0.14 | – | – | – | – | – | – | – |
| wild type CD40 ligand/zipper domain fusion protein expressed in yeast (ligand, also called WT) not shown | – | – | – | – | – | – | – | 15 | 7.7e+07 |

Source: patent US20030091564A1 (published 2003)
